From a protein production outcome set (Wang et al. 2014)

Experiment: label from the status in PepcDB records

Sequence	protein production
MIDLNEALAKDRWIGRLASHLDGFEALLDGQGYAKTTVQQKIKLLAGFSAWVERQDVPLSLLGEEDADLFLTELGLRPRRGDAWTIRQLVRYLRDTGGVPVLLPEVDTSAKGKLIDAFGEFLRKERGLSASTLTNYLPIIRGFLDEQFGGKDPGFDHLRVGDVHRFIVRRAQAGSLGRAKLAVTALRSFLRFLQQRGLLATDLAVAVPGIAGWRLAHLPKALRAEQVERLLASCDRRTPAGRRDYAVLMLLARLGLRGGEVSALTLDDLDWDCGEIVVHGKGQRLARLPLPADVGAALVDYLRQDRPACSTRRVFIRTRAPRRGFVSQSTICCIVRRALKRAGLTPAFKGAHLLRHSLATDLLRRGASLVEIGQLLRHSQPNTTQIYAKVDIAALRAIALPWPGVAS	failed
MTSYPQQPQQTEQYGVQAGEPPLWAPYYGAPIGAAIRRFFKKYTAFSGRASRSEYWWVALALGVIGIVLQILTGILGAAGSTTTSSGTVPGPGAVVGLILIFVFYLAVLIPSIALLVRRLHDGNFSGWLALLGLIPFVGGLAILVFALLPSNPAGQRFDQPTA	failed
MDLHSLCVDSHALRRDGMRFLHTADWQLGMTRHFLAGDAQPRYSAARRDAVAGLKALAADVGAEFVVVAGDVFEHNQLAPQIVGQSLEAMRVIGLPVYLLPGNHDPLDASSVYTSTLFRAERPDNVVVLDRAGVHEVRPGVQIVAAPWRSKAPTTDPVAEVLAGLPTDAAIRLLVAHGGVDALDPDHDKPSLIRLAALDDALTRQAIHYVALGDKHSLTQVGSSGRVWYSGAPEVTNFDDVEPDPGHVLVVDIDESDPRHPVTVDARRIGRWRFVTLHHQVDTSRDIADLDLNLDLMTDKDRTVVRLALTGSLTVTDRAALDTCLDKYARLFAWLGLWERHTDLAVIPVDAEFTDLGIGGFAAAAVDELVATARGGDDESAVDAQAALALLLRLADRGAALEHHHHHH	failed
MKQSKIRSVLQSIALLVLAGTAAAEPKLEKITHGRFEQIPVLRPDGEPQRVVIWFSGAGHVDQRTRQAELLRQDGAMVALVDTTHLYKVLAADSNHCTFSVGDVENLSRYLQAYYRDKTYRLPLLVGDGDGSGLVYAVAAQAPENILAGVVTDGLCP	failed
SQEANYGALLRELCLTQFQVDMEAVGETLWCDWGRTIRSYRELADCTWHMAEKLGCFWPNAEVDRFFLAVHGRYFRSCPISGRAVRDPPGSILYPFIVVPITVTLLVTALVVWQSKRTEGIV	failed
MVSSSNNSSIAKAFVTVAAIFIIFAGIKTAANILVPFLLSVFIAIICNPLINKASEYKIPKAVSVIFVIVVFVTMAVFLTGLVGSSLNELSQQIPQYRIQLKEQFTWLTSFLNSHDIQLSSSIVTEYFDPAAAMGLAADMLSSFGSVMTNLFLIILTVVFMLFESSTIPHKLHLALDDPQMRLNQIERFLSSVNQYIAIKTLVSIATGCIVSLMLWIFGLDFFLLWGVLAFLLNYIPNIGSIIAAVPPMTLAILQLSIGEAGAIGLGFVLINMVMGNIIEPRYLGKGLGLSTLVVFLSLIFWGWLLGTVGMLLSVPLTMILKIGLESSPEGRWLAVMLSDEVELVDKTEQALLD	failed
MKFGPRRPADAIGGVTVHSLRQNGLLLKKGTTIGPAEVAALEKAGIAEIVVVQLEPGDVSEDVAAADVAGAVAGDGITVDRAFTGRANLFAGRTGVLVIDRAVVDRINAVDEAITLATLPAFKPVVEGEMVATVKLIPFGVESRLRDAAVAAAQGSALRVAPYVIKRVGVVSTLLPGLAPKVIDKTLRVTAERLAPAGAEIIAERRVAHEEAALSAAIKELLGLGADMVIVFGASAIADRRDVIPAAIGTVGGTISHFGMPVDPGNLLLVGSVSGVPVLGAPGCARSPVENGFDWVLMRLLAGLTVTRADITAMGVGGLLMEIVTRPQPRVPVAESGRNVAAIVLAAGRGTRMGGPNKLLADLNGKPLVRIVAEQALASQAARTIIVTGHQAGEVEAALYGLDLTFVHNPDFAQGIASSVKTGIAALGEDADGAIVCLGDMPLIDAALIDRMITAFDPDRGALIVVPVAEGRRGNPVLWSRRFFTELMTLGGDVGARHLIAKHGEAVTEVPVEGEAAFLDIDTPQALDEARRG	failed
MSNQQNVWVAYATQTQQFHIRVAFQQGMTAWQAIESSGLLTQVELPQPYHLGIFGVRCVADRLLEAGDRVEIYRPLTINPKDIRRKRAEKNPVGRFQKGNRFK	failed
MVKEPGGKHVLCVGAAVLDTLFRVADMPKGEGKVLPYEVLQIAEGMASSAAYAVHRMGGRASLWGAVGDDETGTRILRDLSESGIDTSGMTVAPGARSALSTIIIDNRGERLIVPFYDHRLHEKKRACTPEDIALFDAVLVDVRWPELALDVLTVARALGKPAILDGDVAPVETLEGLAPAATHIVFSEPAATRLTGLETVKDMLPVLHARYPQTFIAVTAGPAGCWWTEADDPTVHFQTTMQVEAVDTLAAGDIFHGTFALAMAEGMQSRAAVRLSSVAAALKCTVFGGRIGAPTREETEEAMRQWLERESEPALRAS	not failed
MIVNEPVPDTFEDTPAKDRDPDWFKRAVFYEVLVRSFQDSNGDGIGDLKGLTAKLDYLQWLGVDCLWLPPFFKSPLRDGGYDVSDYTAVLPEFGDLADFVEFVDAAHQRGMRVIIDFVMNHTSDQHPWFQESRRNPDGPYGDYYVWADDDKQFQDARIIFVDTEASNWTYDPVRKQYYWHRFFSHQPDLNYENPVVQEEMISALKFWLDLGIDGFRLDAVPYLYQEEGTNCENLPRTHDFLKRVRKEIDAQYPDTVVLAEANQWPEDVVDYFGDYAAGGDECHMAFHFPVMPRIFMAVRRESRYPVSEILAKTPAIPSGCQWGIFLRNHDELTLEMVTDEERDYMYAEYAKDPRMRANIGIRRRLAPLLDNDRNQIELFTALLLSLPGSPILYYGDEIGMGDNIWLGDRDAVRTPMQWTPDRNAGFSSSDPGRLFLPTIMDPVHGYQVTNVEASMASPSSLLHWTRRMIEIRKQNVAFGLGTYTELPSSNPAVLAFLREHEDDLVLCVHNFSRFAQPTELDLSAFDGRHPVELFGGVRFPAVGDLPYLLTLGGHGFYWFRLRKDAA	failed
MDERRAVVLVDELHLRKGGYEAEKVRVFAVRVSETLWAFKALWGSTPFTGTTFV	failed
MAGAMIEARGLVKRFVSGRIRRRVVEALKGVSFSVYEGEIYSFLGPNGAGKTTTVRILSTLLDPDGGEARVAGFDVVKERWEVRKRIGVMLSVERGFYWKLTGRENLYYFGRIYGIPQGELKSRIKEVLDLVGLTDLGGADKPFEEMSLGMKARLGLARVLLKDPEVLILDEPTLGLDPASARTIRGVIRSLASEGRTIFITTHNMVEAEMISDRVGIIIGGRIAMEGTPDELKRRVFSSINLEFRVKASGHAAKKFFYDVKGEYGNRIVGGVTFSDGILTFRVSVNRDEPAEPIIDRITRLAYQYRFKILEIKALEPSLEDVFVAVSESGEARSGRVKGSIAQRLEHHHHHH	not failed
MSDPITLNVGGKLYTTSLATLTSFPDSMLGAMFSGKMPTKRDSQGNCFIDRDGKVFRYILNFLRTSHLDLPEDFQEMGLLRREADFYQVQPLIEALQEKEVELSKAEKNAMLNITLNQRVQTVHFTVREAPQIYSLSSSSMEVFNANIFSTSCLFLKLLGSKLFYCSNGNLSSITSHLQDPNHLTLDWVANVEGLPEEEYTKQNLKRLWVVPANKQINSFQVFVEEVLKIALSDGFCIDSSHPHALDFMNNKIIRLIRYR	failed
MTRKSFPFFLLGLILTVGIDQAVKYWVMHNIPLGTETPLLPFLSLYHVRNSGIAFSFFSSFSHWGLIFLTLIILIFLLWLWKNTQYNKSLTRFGFTLIIGGAIGNLIDRICFYYVIDYILFYINDVFYFAVFNLADTFITLGVIAIIIEELLSWIKRKSTFSE	failed
MGFDFGTVLVFAVVAVGFALGGIAASRALGPKWPNPEKASIYECGERPVGVAWFNFNPRFYLVALVFLVFEVDIALTFPVVAVFKGWVAQGPGMAWVAFFELLVFTGILVVGLAWAWAHGDLEWIKTLGAPSEEAPARAEPRRAA	failed
MLRPSVSLAFASSLPQQSVASRAVQRSPLPRRASGHGATEARGMPSHCFIRFCCIVLLAITGCSPAAQSRYAPERNFSDPKALALALAAEQGDAEEVRRLMKVEGVNPDTIFSKDGYPLLFWPIFTHSPAGLKAMLDNGADPNVALPYQTLDRGVRNNPNAMVWAAEQDDPIYLKMLLDHGGNPNTRNANNESLLFHAFIKQNKWDNIKLLVERGADINAVAGMGNSITAAYAIRGGFDFVYWLLQHGADPTIEFAYGNPVHLKDSGIIEAIFWHPGNPKDPQWQRQCQQWLLKRGYERPPLPENYRSMRKAFHFPSEEKEIPLL	failed
MKFDDSKPIYKQIVHYIHTEIVTGTYEAGDKLLSVRELATKLEVNPTTIQRAYAELEEAGIIFTVRGTGKYLTEDKRRIEQLENHIAKQLTENFISEMSKLGINKEKIIAWVKKVEEVEVNASGK	failed
MLNDGVYLAQARGMAGFVHAKLTVKDNKIVGVDLDLTTETPENKPKVEQQLKKEILTRQSADIDAVSGATFTSNGVKEAVQQTLKQAEKLEHHHHHH	not failed
MGTLPARRHIPPWVKVPEDLKDPEVFQVQTRLLKAIFGPDGSRIPYIEQVSKAMLELKALESSDLTEVVVYGSYLYKLRTKWMLQSMAEWHRQRQERGMLKLAEAMNALELGPWMK	failed
MRKSFNLIWMVFGFLLLIVGCNEDKKSTAFDPNQPVKFTEFMPDSGGIRTKFIVKGSNFGEDKSQVKVYFKDEVGNEREALVLGVKPDVIYAQVPKQAGGESHVRVEIAGKEAELSNAEKTFKYIVTSSVSTVVGKAKEGGNKDGTLGETTFNTPRYVAVDNDDNVFIFDSDGRTRLSSIEQNKTITLLDGMVIDQPLFIDKEKKQLFGPCDNANFGCFLFDANVSWVADKMGQLLANGGWMHSVVLDPVDSTFVIYRQNTGQLWTQPFDKNRRTLNPNKAKRIGTLYNTGSNGLCAYNPVDKYVYCVLHSKSAVYRFKLTRDADGWPALDGDIDEYIPGAGAGFRDGDVQEAQFKEPRGIAIDKEGNLYIADVGNNRIRKVDTKLNVVTTIAGSGAAGYKDGDPLEAQFNQPWGVYLDKNEFLYIADQNNHCIRKLAIE	failed
MEKFTLSRIINIIMFLYILSIYLFTFRDGLNSISNFLALTFIAAIWSNVLLTRKKIVFNKFLFIYFLFILVCFVSVFFAINQSIAVSKIKTIILIYFLMISLVNYIDTFEKLRSFLLSFVYSGFITGVYILASSDFSQVTRYGSELGNVNSIGMIIGISSIFCFYFIIEEKKYLLYTPIMLINIFVVFLTGSRKALLFVVLTIIAILLIQQKAGIKGKIKALIGILVTLVISLYVIFNVELLYTIIGVRMEHLFSYILGKGANEGSINIRANMIDMGLDWFQERPITGYGIDNFRSLYGIEAIGGEFTYSHNNLVELLVGIGIIGTFLFYLTHFIVLKGLYKESKKNQKSALCYSFIAIIGIYIILSVGLIYYYDKHISMILAIGSIIYKIGKPSGEELTQKTLE	failed
